The target of one test is T1, GFP-tagged BMH1 (Saccharomyces cerevisiae, UniProt P29311 2-267).
T1 construct: Yeast GFP Fusion Collection strain; also called Yeast GFP fusion collection GFP(+)27, D5; not shown: GFP tag
T1 sequence (looked up): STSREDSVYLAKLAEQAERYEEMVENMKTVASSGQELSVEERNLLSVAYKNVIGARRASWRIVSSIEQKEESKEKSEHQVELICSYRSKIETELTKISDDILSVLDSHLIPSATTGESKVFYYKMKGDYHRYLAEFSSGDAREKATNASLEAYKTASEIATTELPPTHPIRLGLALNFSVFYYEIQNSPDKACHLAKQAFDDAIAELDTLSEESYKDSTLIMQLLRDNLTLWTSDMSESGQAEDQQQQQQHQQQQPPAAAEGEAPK
Briefly: co-immunoprecipitation, Nb coupled to NHS-agarose beads, lysate of the yeast strain expressing the GFP-tagged target, Western blot anti-GFP. As to the method:
(§1) One SIS1-specific Nanobody (44=Nb clone CA17444 corresponding to SEQ ID NO: 9), three ALD6-specific Nanobodies (53=CA17453-SEQ ID NO: 10, 54=CA17454-SEQ ID NO: 11, 60=CA17460-SEQ ID NO: 12), two BMH1-specific Nanobodies (58=CA17458-SEQ ID NO: 13, 59=CA17459-SEQ ID NO: 14) were characterized by co-immunoprecipitation assays. Each target-specific Nanobodies was covalently linked to NHS-agarose beads. The beads that were functionalized with these target-specific Nanobodies were incubated for an hour at 4° C. on a rotating device with either an EBY100 lysate or the lysate of the engineered Yeast strain expressing the target (Yeast GFP fusion collection reference for SIS1: GFP(+)22, E5, for ALD6: GFP(+)15, F1, for BMH1: GFP(+)27, D5) as a GFP-tagged protein. After washing, these beads were resuspended in SDS-PAGE loading dye and analyzed on SDS-PAGE (FIG. 8A). Separated proteins were transferred to a PVDF membrane and the Western blot (FIG. 8B) was developed with GFP-specific antibody to confirm the presence of GFP-tagged targets.
A general note: Immunoblotting shows a protein as a band on a membrane.

For test [1], the target named is T2, BMH1 (native, from EBY100 lysate) (Saccharomyces cerevisiae, UniProt P29311 2-267).
T2 construct: mature; Endogenous untagged protein; also called YER177W
T2 sequence (looked up): T1 sequence (looked up)
Briefly: co-IP, Nb on NHS-agarose beads, EBY100 yeast lysate, SDS-PAGE.

The target in the next test is T3, GFP-tagged SOD1 (Saccharomyces cerevisiae, UniProt P00445 2-154).
T3 construct: Yeast GFP Fusion Collection strain; also called Yeast GFP fusion collection GFP(+)33, F8; YJR104C; not shown: GFP tag
T3 sequence (looked up): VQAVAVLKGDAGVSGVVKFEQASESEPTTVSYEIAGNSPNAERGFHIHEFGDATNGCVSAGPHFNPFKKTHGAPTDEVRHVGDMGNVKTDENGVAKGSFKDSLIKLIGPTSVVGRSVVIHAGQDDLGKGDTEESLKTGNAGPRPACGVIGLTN
The test is described as follows: co-immunoprecipitation, Nb coupled to NHS-agarose beads, lysate of the yeast strain expressing the GFP-tagged target, Western blot anti-GFP. An excerpt:
(§2) One HSP104-specific Nanobody (04=CA18504 SEQ ID NO:40), one MET6-specific Nanobody (05=CA18505 SEQ ID NO:41), two SBA1-specific Nanobodies (08=Nb clone CA18508 corresponding to SEQ ID NO:42, 09=CA18509-SEQ ID NO:43), one SOD1-specific Nanobody (10=CA18510-SEQ ID NO:44), and a ENO1-specific Nanobody (38=CA17938-SEQ ID NO:45), were characterized by co-immunoprecipitation assays. Each POI-specific Nanobodies was covalently linked to NHS-agarose beads. The beads that were functionalized with these POI-specific Nanobodies were incubated for an hour at 4° C. on a rotating device with the lysate of the engineered Yeast strain expressing the POIs (Yeast GFP fusion collection reference: GFP(+)05, A2 (HSP104); GFP(+)07, D4 (MET6); GFP(+)30, A6 (SBA1); GFP(+)33, F8 (SOD1) and GFP(+)17, D12 (ENO1) as a GFP-tagged protein. After washing, these beads were analyzed on SDS-PAGE (not shown) and Western blot was developed with GFP-specific antibody to confirm the presence of GFP-tagged POIs.

In another test the target is T4, GFP-tagged SIS1 (Saccharomyces cerevisiae, UniProt P25294 1-352).
T4 construct: Yeast GFP Fusion Collection strain; also called Yeast GFP fusion collection GFP(+)22, E5; not shown: GFP tag
T4 sequence (looked up): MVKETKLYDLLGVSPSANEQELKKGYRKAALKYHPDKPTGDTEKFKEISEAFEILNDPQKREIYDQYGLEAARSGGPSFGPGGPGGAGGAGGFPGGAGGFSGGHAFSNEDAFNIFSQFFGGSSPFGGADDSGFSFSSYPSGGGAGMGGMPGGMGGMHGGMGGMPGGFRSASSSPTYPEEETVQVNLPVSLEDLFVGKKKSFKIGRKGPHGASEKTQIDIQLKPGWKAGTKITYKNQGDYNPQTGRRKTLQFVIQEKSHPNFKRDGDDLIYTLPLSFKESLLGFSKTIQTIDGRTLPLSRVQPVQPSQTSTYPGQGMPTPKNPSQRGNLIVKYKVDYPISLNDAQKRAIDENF
The test is described as above. The protocol: as §1

Test [2] addresses T5, SIS1 (native, from EBY100 lysate) (Saccharomyces cerevisiae, UniProt P25294 1-352).
T5 construct: mature; Endogenous untagged protein; also called YNL007C
T5 sequence (looked up): T4 sequence (looked up)
The test is described as follows: co-IP, Nb on NHS-agarose beads, EBY100 yeast lysate, SDS-PAGE.

For test [3], the target named is T6, Rat Vesicular GLUtamate Transporter 1 (full-length, HEK293T lysate of Example 7) (rat, UniProt Q62634 1-560).
T6 construct: mature; Produced in HEK293T cells as published (Schenck et al., 2017), solubilised in DDM; also called rVGLUT1; rat VGLUT1
T6 sequence (looked up): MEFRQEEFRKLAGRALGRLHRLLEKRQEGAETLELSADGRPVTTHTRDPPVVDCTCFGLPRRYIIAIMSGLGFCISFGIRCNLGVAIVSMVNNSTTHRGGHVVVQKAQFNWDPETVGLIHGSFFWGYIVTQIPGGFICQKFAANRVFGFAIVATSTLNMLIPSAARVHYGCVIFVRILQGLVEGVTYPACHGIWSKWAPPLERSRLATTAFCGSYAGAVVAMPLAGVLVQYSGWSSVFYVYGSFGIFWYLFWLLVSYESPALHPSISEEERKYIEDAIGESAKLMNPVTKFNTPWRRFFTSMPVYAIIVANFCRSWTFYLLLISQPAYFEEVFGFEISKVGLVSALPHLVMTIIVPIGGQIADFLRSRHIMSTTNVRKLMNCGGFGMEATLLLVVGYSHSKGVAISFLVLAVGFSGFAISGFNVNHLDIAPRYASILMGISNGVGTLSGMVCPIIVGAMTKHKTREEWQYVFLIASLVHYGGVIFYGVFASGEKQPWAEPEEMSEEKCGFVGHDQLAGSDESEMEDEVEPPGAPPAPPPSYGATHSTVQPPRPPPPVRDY
Briefly: NANEX: capture from DDM lysate of HEK293T cells, elution with the same Nb.

The target of another test is T7, GFP-tagged MET6 (Saccharomyces cerevisiae, UniProt P05694 2-767).
T7 construct: Yeast GFP Fusion Collection strain; also called Yeast GFP fusion collection GFP(+)07, D4; YER091C; not shown: GFP tag
T7 sequence (looked up): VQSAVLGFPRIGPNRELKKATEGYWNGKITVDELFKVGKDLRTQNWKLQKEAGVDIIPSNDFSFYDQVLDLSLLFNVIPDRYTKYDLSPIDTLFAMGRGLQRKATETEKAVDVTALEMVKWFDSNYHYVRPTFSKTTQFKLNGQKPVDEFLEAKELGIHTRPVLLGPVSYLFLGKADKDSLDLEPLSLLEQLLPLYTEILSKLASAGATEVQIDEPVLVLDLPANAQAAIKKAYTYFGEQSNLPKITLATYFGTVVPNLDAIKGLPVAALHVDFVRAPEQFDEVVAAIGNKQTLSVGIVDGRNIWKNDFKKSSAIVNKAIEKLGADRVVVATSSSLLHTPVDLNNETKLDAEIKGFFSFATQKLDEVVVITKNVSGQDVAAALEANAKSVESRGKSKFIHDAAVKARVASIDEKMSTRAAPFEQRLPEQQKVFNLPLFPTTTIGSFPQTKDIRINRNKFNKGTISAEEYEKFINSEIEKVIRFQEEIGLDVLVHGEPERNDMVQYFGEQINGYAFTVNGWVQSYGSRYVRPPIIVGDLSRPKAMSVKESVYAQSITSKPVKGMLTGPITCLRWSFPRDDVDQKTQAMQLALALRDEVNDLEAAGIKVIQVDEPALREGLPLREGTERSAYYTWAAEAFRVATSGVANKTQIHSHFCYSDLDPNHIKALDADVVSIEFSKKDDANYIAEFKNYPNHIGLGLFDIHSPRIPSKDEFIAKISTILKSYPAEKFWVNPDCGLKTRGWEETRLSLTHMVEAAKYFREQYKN
The test is described as follows: co-immunoprecipitation, Nb coupled to NHS-agarose beads, lysate of the yeast strain expressing the GFP-tagged target, Western blot anti-GFP.
From the text: as §2

The target of the next test is T8, GFP protein (Aequorea victoria (Water jellyfish) …, UniProt P42212 1-238 = GFP, biotinylated with the EZ-Link sulfo-NHS-LC-biotinylation kit for the BLI assay; unmodified in the NANEX selections).
T8 construct: Purified GFP; also called wild type GFP; biotinylated GFP
Briefly: method not stated.

The target in the next test is T9, GFP-tagged HSP104 (Saccharomyces cerevisiae, UniProt P31539 1-908).
T9 construct: Yeast GFP Fusion Collection strain; also called Yeast GFP fusion collection GFP(+)05, A2; YLL026W; not shown: GFP tag
Briefly: co-immunoprecipitation, Nb coupled to NHS-agarose beads, lysate of the yeast strain expressing the GFP-tagged target, Western blot anti-GFP.
From the text: as §2

In the next test the target is T10, GFP-tagged ENO1 (Saccharomyces cerevisiae, UniProt P00924 2-437).
T10 construct: Yeast GFP Fusion Collection strain; also called Yeast GFP fusion collection GFP(+)17, D12; YGR254W; not shown: GFP tag
The test is described as above.
From the text: as §2

T9 sequence (P31539 whole entry, the tested form may be a part): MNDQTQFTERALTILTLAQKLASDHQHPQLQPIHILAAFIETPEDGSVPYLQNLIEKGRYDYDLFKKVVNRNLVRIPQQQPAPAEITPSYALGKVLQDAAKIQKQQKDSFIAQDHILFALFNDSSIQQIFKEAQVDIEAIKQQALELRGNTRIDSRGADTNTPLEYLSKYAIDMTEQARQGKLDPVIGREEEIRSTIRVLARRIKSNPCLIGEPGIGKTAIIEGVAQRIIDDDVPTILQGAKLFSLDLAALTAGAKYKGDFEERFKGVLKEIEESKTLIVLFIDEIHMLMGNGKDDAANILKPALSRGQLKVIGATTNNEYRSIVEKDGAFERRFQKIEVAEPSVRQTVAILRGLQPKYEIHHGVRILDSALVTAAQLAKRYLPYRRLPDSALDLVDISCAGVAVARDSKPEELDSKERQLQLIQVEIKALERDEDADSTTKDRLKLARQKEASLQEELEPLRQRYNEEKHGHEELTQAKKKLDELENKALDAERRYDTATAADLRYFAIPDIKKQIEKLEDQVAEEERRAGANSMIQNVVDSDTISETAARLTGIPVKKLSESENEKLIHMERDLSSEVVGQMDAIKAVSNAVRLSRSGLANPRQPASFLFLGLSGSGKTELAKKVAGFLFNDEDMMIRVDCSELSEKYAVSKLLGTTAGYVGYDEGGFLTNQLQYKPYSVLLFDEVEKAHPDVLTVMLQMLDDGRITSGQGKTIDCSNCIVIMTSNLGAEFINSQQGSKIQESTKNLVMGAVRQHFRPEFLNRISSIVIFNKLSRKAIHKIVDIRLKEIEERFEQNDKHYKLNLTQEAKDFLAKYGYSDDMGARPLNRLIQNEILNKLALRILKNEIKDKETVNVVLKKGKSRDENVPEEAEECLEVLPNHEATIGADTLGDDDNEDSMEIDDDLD
T10 sequence (P00924 2-437): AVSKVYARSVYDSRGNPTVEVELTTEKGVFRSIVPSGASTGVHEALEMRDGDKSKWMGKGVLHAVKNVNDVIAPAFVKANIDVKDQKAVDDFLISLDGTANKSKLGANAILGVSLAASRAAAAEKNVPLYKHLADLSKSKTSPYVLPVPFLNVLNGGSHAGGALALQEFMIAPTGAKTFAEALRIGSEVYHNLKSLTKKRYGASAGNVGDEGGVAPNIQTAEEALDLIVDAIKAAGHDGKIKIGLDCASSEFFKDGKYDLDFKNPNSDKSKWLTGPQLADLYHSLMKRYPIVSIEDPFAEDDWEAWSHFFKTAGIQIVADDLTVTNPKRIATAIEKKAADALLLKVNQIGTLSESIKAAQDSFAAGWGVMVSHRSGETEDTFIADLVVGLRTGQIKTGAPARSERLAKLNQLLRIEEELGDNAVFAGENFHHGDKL

B1: CA17458 (VHH)
VHH: QVQLVESGGGLVQPGGSLRLSCAASGTTLSLRRVGWYRQAPGKQRDLVATLTSGGETSYADSVKGRFTISRDNAKNTVYLQMNSLKLEDTAVYYCNAINWPMDYWGQGTQVTVSS
notes: C-terminal 6xHis-EPEA tag is part of the entry
Turning to B1, the binding result (with GFP-tagged BMH1; in test [1]) was “binds” each time.

B2: CA18510 (VHH)
VHH: QVQLVESGGGLVEAGGSLRLSCAASGRTFSSYAMGWFRQAPGKEREFVAAISWSGGSTYYADSVKGRFTISRDNAKNTVYLQMNSLKPEDTAVYYCAAPTAYHYSTTRDEYDSWGQGTQVTVSS
notes: as for B1
Regarding B2, in the test with GFP-tagged SOD1, the binding result is recorded as “binds”.

B3: CA17444 (VHH)
VHH: QVQLVESGGGLVQPGGSLRLSCAASGFTLDYYAIGWFRQAPGKEREGVSCISSSDGSTVYADSVKGRFTISRDNAKNTVYLQMSNLKPEDTAVYYCATDQITSTGCPDFDSWGQGTQVTVSS
notes: as for B1
Turning to B3, the binding result (with GFP-tagged SIS1; in [2]) was “binds” throughout.

B4: CA17875 (VHH)
VHH: QVQLQESGGGLVQAGGSLRLSCAASGRSVRTWSMGWFRQPPGKERELVAGISWSGSGTYHADSVKGRFTISRDNAKNMVYLQMNSLKPEDTAVYYCAAGQTGWNPGSDFHRWGKGTQVTVSS
notes: C-terminal 6xHis-EPEA tag is part of the entry; also called rVGLUT1-specific trapper/stripper
In the case of B4, in [3], the binding result is reported as “binds”.

B5: CA18505 (VHH)
VHH: QVQLVESGGGLVQPGGSLRLSCAASGSIFSINAWGWYRQAPGKERELVAVITSVGGRTNYADSVKGRFTISRDNAKDMVYLQMNSLKPEDTAVYYCNSRGSSWYFGTPQDYWGQGTQVTVSS
notes: as for B1
Take B5: the binding result with GFP-tagged MET6 is “binds”.

B6: CA15816 (VHH)
VHH: QVQLVESGGGLVQAGGSLRLSCAASGRTFSTAAMGWFRQAPGKERDFVAGIYWAAGSTYYADSAKGRFTISRDNAKNTVYLQMDSLKPEDTAVYYCAARRRGFTLAPTRANEYDYWGQGTQVTVSS
notes: C-terminal 6xHis-EPEA tag is part of the entry, which already carries T54A/V55A; also called GFP trapper; GFP-specific trapper
As usually defined, the Kd is the free concentration of one partner at which half of the binding sites on the other are occupied at equilibrium, for simple one-to-one binding. Molecule B6 came in with a Kd with GFP protein of 2.7 nM.

B7: CA18504 (VHH)
VHH: QVQLVESGGGLVQPGGSLTLSCAGSGRAFDSIAMGWFRQAPGKEREFVAAISWNGVSAYYADSVKGRFTISRDNAKNTVHLQMNSLQSDDTAVYYCHADNSWGQGTQVTVSS
notes: as for B1
Take B7: the binding result with GFP-tagged HSP104 is recorded as “binds”.

B8: CA17938 (VHH)
VHH: QVQLVESGGGLVQPGGSLRLSCAASGFTLDTWAIGWFRQVPGKDREGAACISSEPSSTYYGEFVNGRFTISRDSAKSTVYLQMNDLKPEDTAVYYCSADRLSAYCSGSGGWGQGTQVTVSS
notes: as for B1
Consider B8, for which the binding result in the test with GFP-tagged ENO1 is reported as “binds”.

(Values after patent US20240287501A1 (VIB VZW, published 2024).)
